± gives the uncertainty stated by the source.
Assay: amyloid nucleation score (Sup35N fusion, yeast selection) (log enrichment); library NNK1; higher = more nucleation; inactive = no reads after selection
Method in brief: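 Random libraries were run with three technical output replicates. In each, psi-negative yeast expressing Sup35N fused to peptides of 20 random codons were induced 24 hours with 100 μM copper sulfate and grown 7 days at 30°C on medium lacking adenine and uracil, and input and output plasmid inserts were Illumina-sequenced. The nucleation score is the DiMSum log enrichment of output over input reads, centred on the mode score of non-aggregating sequences, and sequences under 100 input reads were excluded.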

Row | Substance | amyloid nucleation score
1 | DAVSYNSPGGELYDLFNLTA | -0.994 ± 0.97
2 | DAYVLD | 0.314 ± 0.34
3 | DCFARVLLTMRYLKGVVYTE | 1.13 ± 0.27
4 | DCFYLSIGRIFFHP | 2.92 ± 0.21
5 | DCIACRECSMTSKLLGGLGT | 0.859 ± 0.39
6 | DCKAYSIRSNV | 0.705 ± 0.36
7 | DDKITSLLVMSRDKVKPMSD | inactive
8 | DDLTVMVGPYMGGS | -0.82 ± 1.1
9 | DDMCFLN | 0.797 ± 0.34
10 | DDRVSQLAWGLCAVSYARLE | 0.681 ± 0.54
11 | DDSGRL | 0.494 ± 0.59
12 | DDTIFLMRAIMVFNLICWCV | inactive
13 | DDVVWNYSTA | -0.487 ± 0.58
14 | DEDERWCLDIVG | -0.076 ± 0.37
15 | DEFSFDSSLLMLFGAGYGV | 0.932 ± 0.62
16 | DFCFPSNVRGLDCGGSKGYR | inactive
17 | DFCLNGSYFNTLDNSGCSSL | -0.114 ± 0.52
18 | DFENWPVRLWYFKTIFLRS | 1.93 ± 0.51
19 | DFILLVVLYFVLYFFTCMVL | 0.22 ± 0.72
20 | DFRKDWYWESPASRFFTNEV | 0.44 ± 0.53
21 | DFSVQKSGSYQTEHYLVFRN | -0.12 ± 0.21
22 | DFVETEFRLRRD | inactive
23 | DGAYWELSY | -0.506 ± 0.27
24 | DGEFRRDSSCVGVEERVVLV | 0.551 ± 1.2
25 | DGELMAYLSDGNQG | inactive
26 | DGFMCFLYKLASQT | 0.158 ± 0.78

Row | Substance | amyloid nucleation score
27 | DGLLSIEYMNVYSSS | 0.326 ± 0.77
28 | DGNLKSR | 0.644 ± 0.78
29 | DGSCKLYVVFRPAVLGHGHS | 1.05 ± 0.85
30 | DGSGRGRALTVTIDWAVQLV | 0.26 ± 0.88
31 | DGSVGFLMLEVCLWHSFLAC | inactive
32 | DGVRTDLVILFWQCDHYEL | -0.516 ± 0.43
33 | DGYFQFKFYCTEMGMLFCFF | -1.24 ± 0.56
34 | DGYGLIFW | -0.268 ± 0.47
35 | DHFKKILGLCKSGCRVVERE | 0.759 ± 0.41
36 | DHLYLMV | 1.04 ± 0.72
37 | DIATCRIWTVCTCQMCFISV | 6.17 ± 0.089
38 | DIDFLLNLCESNLIFANM | -0.887 ± 0.87
39 | DIERMKVPELFCLLSLDTGP | -0.376 ± 1.7
40 | DIFSA | 1.49 ± 0.43
41 | DIKCLLR | 0.238 ± 0.36
42 | DIVDARFTLTGFKFECVR | 0.297 ± 0.28
43 | DKCCKLSRD | 0.972 ± 0.58
44 | DKLDSLIRVLNRLDNL | -0.316 ± 0.4
45 | DKLSNVFLFLTDGCLNFNSF | 3.1 ± 0.11
46 | DKPIV | -0.09 ± 0.88
47 | DKRKVRFAVMFNWRRELRY | 0.708 ± 0.7
48 | DKWRVRCCRFWLT | 0.191 ± 0.29
49 | DLAWWMSCAHFMSMTRGLQR | 0.595 ± 0.36
50 | DLGNLFLGISVKCI | 0.961 ± 0.53
51 | DLIYTDGLV | -0.743 ± 0.24
52 | DLLDLIQISDSLKILNALPE | 0.845 ± 0.18

Row | Substance | amyloid nucleation score
53 | DLNLFDRNHVELRMIVD | 0.726 ± 0.65
54 | DLQCVAKVHESVGLGHHVHE | 0.659 ± 0.5
55 | DLVCDFYVGLV | 2.42 ± 0.085
56 | DLYFIKDSTLCTISLFLIYW | 0.324 ± 1.2
57 | DLYKSVPKHNQSNMSDSTES | -0.631 ± 0.6
58 | DMKNDYLHVGFWVLIGWHYL | 0.743 ± 0.37
59 | DMKNYVPVLLGNTMIMLWGL | 3.08 ± 0.085
60 | DMLRMVRYTVWVSRVRSHGW | 3.07 ± 0.079
61 | DMLSEIFGSSPNEYAPH | 0.521 ± 0.29
62 | DNDYDLDPVGIRVHLFNQ | inactive
63 | DNGLGRRWARAKYKECRKAR | 0.141 ± 0.27
64 | DNGVLQNNWVIMYCELHHGV | 5.691 ± 0.052
65 | DNLNYEMHVLWMCNL | 4.82 ± 0.056
66 | DNNTVITIEQC | 0.286 ± 1
67 | DNRLVSSGMRRGHSGWIGGT | 0.505 ± 0.71
68 | DNRVLVPRRAFNDHIWCMYV | -0.23 ± 0.61
69 | DNTHSSFIHFETGKKYYA | 0.319 ± 0.78
70 | DPAYEQGGLFEVGTIHCNIK | 0.527 ± 0.46
71 | DPDHGPFQNNVWQRRPRWSH | 0.124 ± 0.47
72 | DPTTPYDISGIWLRLEVRAD | -0.175 ± 0.46
73 | DPVTDVFG | -0.541 ± 0.36
74 | DQITYVPIMNQMMWATLLTF | 0.849 ± 0.59
75 | DQRVDR | 0.107 ± 0.89
76 | DRLGDHLKDILVKFYNV | 0.294 ± 0.99
77 | DRLMFRYSIRRIRFVSESSP | 1.41 ± 0.43
78 | DRLSAT | 0.272 ± 1.2

Row | Substance | amyloid nucleation score
79 | DRRFRIITHLANSLIWNKWQ | 0.076 ± 0.49
80 | DRRKAPGLMNAMD | 0.737 ± 0.97
81 | DRTTNVEYWLGAEMLSSRTV | -0.469 ± 0.78
82 | DRVCILEQLDRSRGATVCAR | 1.24 ± 0.76
83 | DRWRSL | -0.582 ± 0.96
84 | DSEQGRLIYICFRVTTIRAL | -0.062 ± 0.36
85 | DSGDEGVIVSVSHGWTSEGL | 0.443 ± 0.81
86 | DSGSHRGW | 0.289 ± 0.28
87 | DSIMNGR | 0.713 ± 0.74
88 | DSINCCMMCYEK | 7.567 ± 0.071
89 | DSLSNLCDFCSSK | 0.668 ± 0.5
90 | DSRRGYPMMSMMWW | -0.354 ± 0.39
91 | DSRVLSDYLSSYLSLKYLLV | -0.031 ± 0.62
92 | DSSWTWKDVV | 0.397 ± 1.2
93 | DSVLQDTLIMWCSMKTVSPS | -0.075 ± 0.29
94 | DSYCLRMPIGSCIDWWGKGV | -0.058 ± 0.61
95 | DSYDLY | inactive
96 | DSYILRGNSVLGGGTFSVIR | 0.062 ± 0.53
97 | DSYSLSN | -0.179 ± 0.27
98 | DTLDLQLRNVRLTRACMAQY | 0.329 ± 0.34
99 | DTPWWGSGALVFKLCACSAY | -0.341 ± 0.59
100 | DTRNPRITALRY | 0.431 ± 0.39
101 | DTRTSNNPALFRGFTALRVR | 0.412 ± 0.54
102 | DTVYLLGGCCLVVRLNLFIG | 3.77 ± 0.15
103 | DVGMLV | -0.107 ± 0.31
104 | DVIMEGFAMCVWSRVTALLE | 0.492 ± 0.85

Row | Substance | amyloid nucleation score
105 | DVNNIHLRKLTDCHI | 1.61 ± 0.36
106 | DVTLMCYRQCLDMDMPIDLG | 0.733 ± 0.32
107 | DVVICRYSAVIRVFLTLKFK | -0.202 ± 0.49
108 | DVVLDYSRQTYKDPASRMYA | 1.1 ± 0.71
109 | DVVPSSGFVFMIRTDTLSHN | -0.265 ± 1.2
110 | DVVTSGILTASSRWYVRRGR | -0.729 ± 1.2
111 | DWFSGLNRPRCIKLAQGGTG | 0.441 ± 0.38
112 | DWRNAFLLCYANRNVQTCMS | -0.673 ± 0.3
113 | DYFRYRIFKKSYHKPAVICI | -0.415 ± 0.52
114 | DYGDYCAKWTQSYNALTVRF | 0.594 ± 0.58
115 | DYGIVGAEVKKCLIL | 0.433 ± 0.44
116 | DYSLKCLTPVVSDRAWCRLN | 0.398 ± 0.83
117 | DYSYCKVNPLNSVLSVLVLL | -0.34 ± 0.29
118 | DYTDMYTC | 0.571 ± 0.5
119 | EAGQLLL | inactive
120 | EAMLKFTVYTIVRSFNAKSR | 1.11 ± 0.32
121 | EARWRQSC | 0.387 ± 0.36
122 | EASTYHFSCGRANVTDELGT | 0.882 ± 0.53
123 | ECGYFRLVSGERYTPVSSMR | -0.139 ± 0.37
124 | ECKWSLKNHYWVYDGLRGGT | -0.378 ± 0.78
125 | ECMRTRFMGNYNGPGISILY | inactive
126 | EDSMNNL | -0.127 ± 0.84
127 | EDVAYYGNGFRLTYDRQITL | -0.733 ± 0.67
128 | EEPLLSDMCITVGVRFLNKS | 3.36 ± 0.22

From the supplement of paper PMC12042874
